According to US20010055591A1:

What was measured:
[1] = biological target: thrombin (free thrombin) (human) (UniProt P00734); test: discontinuous thrombin inhibition assay, chromogenic substrate; no TM
[2] = biological target: thrombin (free thrombin) (human) (UniProt P00734); test: discontinuous thrombin inhibition assay, chromogenic substrate; with 5 µg/ml heparin
trypsin = test: discontinuous trypsin inhibition assay, chromogenic substrate SpTH
Factor Xa (human) = Factor Xa (human) (UniProt P00742); test: discontinuous Factor Xa inhibition assay, chromogenic substrate SpFXa
Factor Xa (human), sequence (P00742 41-179 limits assumed, form in doubt, chain 1 of 2): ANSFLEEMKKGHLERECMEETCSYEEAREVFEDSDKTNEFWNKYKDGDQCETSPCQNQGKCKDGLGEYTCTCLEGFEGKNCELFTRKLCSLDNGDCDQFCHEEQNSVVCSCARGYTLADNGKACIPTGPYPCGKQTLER
Factor Xa (human), sequence (P00742 235-488 limits assumed, form in doubt, chain 2 of 2): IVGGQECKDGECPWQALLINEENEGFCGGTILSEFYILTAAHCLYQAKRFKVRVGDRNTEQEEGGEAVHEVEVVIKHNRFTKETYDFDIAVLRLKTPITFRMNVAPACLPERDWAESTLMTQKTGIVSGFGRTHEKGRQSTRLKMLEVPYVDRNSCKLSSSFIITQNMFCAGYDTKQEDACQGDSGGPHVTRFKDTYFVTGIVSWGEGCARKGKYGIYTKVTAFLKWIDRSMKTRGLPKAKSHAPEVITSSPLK

- second-order rate constant (κ2) of inhibition [1]: 4100 M⁻¹ s⁻¹
- second-order rate constant (κ2) of inhibition [2]: 1.4e+06 M⁻¹ s⁻¹
- second-order rate constant (κ2) of inhibition (trypsin): 17000 M⁻¹ s⁻¹
- second-order rate constant (κ2) of inhibition (Factor Xa (human)): 990 M⁻¹ s⁻¹
Substance: AT-neut (antithrombin H-helix mutant Asp309 to Asn, Glu310, 312, 313 to Gln) (from UniProt P01008 33-464)
